Measurements as given in article PMC9658050.
“And” between values parts separate entries of the source, which are not always exact repeats. Equal entries are not always repeated.

What was measured:
[1] = biological target: His-tagged truncated SARS-CoV-2 E protein (residues 8-65) (SARS-CoV-2) (UniProt P0DTC4); experiment: AUC
[2] = biological target: Full-length SARS-CoV-2 envelope (E) protein (SARS-CoV-2) (UniProt P0DTC4); experiment: AUC

Row | Substance | Log10 Ka (monomers to pentamer) [1] | percent of the sample as trimers [1] [%] | stoichiometry N [1] | Log10 Ka (monomers to pentamer) [2] | percent of the sample as pentamers [2] [%] | stoichiometry N [2]
1 | His-tagged truncated SARS-CoV-2 E protein (residues 8-65) (from UniProt P0DTC4 8-65) (domain or fragment) | 16 | 60 | 3 | – | – | –
2 | Full-length SARS-CoV-2 envelope (E) protein (from UniProt P0DTC4 1-75) (natural protein) | – | – | – | 17.4 | 80 | 3 and 5
